Experimental data from the DeepSol protein solubility set.

Test: soluble on expression in E. coli; label from the status in PepcDB or PDB records

| Sequence | soluble on expression in E. coli |
| --- | --- |
| MAHHHHHHMVELTEEEAMNFLNIALGEAEKSLQKELKEMPIFCLLINEEKKIISSSYNYTNESKNGSRHSELIAIDKYIYDGNYEQMKNLNLIKCYNNNENSIEKSIQDYFVSLDEKKNSELKINNYENINDKYMNEKYNKIQERINNLKKCCIVVTCEPCIMCVYALKLIGIKNIYFCCLNERFGGCGSVLSLHKKYEDINVHYIEHPECSEKSINLMKAFYKAGNPSAPEEKRKRPIS | not soluble |
| MSEPKRLFFAIDLPDDARAQIIAWRAAHFASEDGRPVAAANLHLTLAFLGDVSSDKQRALAQLAGRIRQPGFTLHLDDAGQWLRSRVVWLGMRQPPRGLLQLANMLRAQAARSGCYQSPQPFHPHITLLRDASHTVAIPPPGFCWSFPVTSFALYASSYGQGRTRYAELQRWTLGE | not soluble |
| MAHHHHHHMSTYDKSDQIGYDETDHTLNAELEEMMARTPPEVQRHLQHRIHDGILQRMKEETTRKCITFIQKYEQCVNSQKPYNMKLCYPHRDAMNGCAQEVNREENYQRYRIMYLRGELLKYHEKRTAGKMEAFKVRAPDAIRAWKHDYAPKYMHIMEDLGVAPLGTAAGTAEESTNSK | not soluble |
| MGSDKIHHHHHHMKQIIDIENWERKENFNFFRHFQNPQLSITSEVECGGARQRAKAAGQSFFLHYLYAVLRAANEIPEFRYRIDPDGRVVLYDTIDMLSPIKIKENGKFFTTRFPYHNDFDTFYQEARLIIDAIPEDGDPYAAENEEVADGDYGLILLSATPDLYFTSITGTQEKRSGNNYPLLNAGKAIIREGRLVMPIAMTIHHGFIDGHHLSLFYKKVEDFLK | not soluble |
| MSLQAKIKNKRVLVKFSGEALAGDNQFGIDIHVLDHIAKEIKSLVENDIEVGIVIGGGNIIRGVSAAQGGIIRRTSGDYMGMLATVINAVAMQEALEHIGLDTRVQSAIEIKEICESYIYRKAIRHLEKGRVVIFGAGTGNPFFTTDTAATLRAIEIGSDLIIKATKVDGIYDKDPNKFKDAKKLDTLSYNDALIGDIEVMDDTAISLAKDNKLPIVVCNMFKKGNLLQVIKHQQGVFSMVKEGHHHHHH | soluble |
| MGDLKDGTYKLEEKNEKNGYRAVFEMTVKDGKITESKYDNINADGKSKTEDTKYEESMKAKSGVGPKEYIKQLNDSFVKAQSASGVEVVTGATHSSESFQNYAQQLIQAAQAGNTDTIEIDNGATLKDGTYSLKEKNDSNGYHTTFSMTVKDGKVTESNYDNVNADGKSKKDDTEYESKMKDVAGVGPKEYIETLNKEFVKAMGEEDGSPAGVEVVTGATHSTHSFINYAQQLVNAAEKGDTTEIVVDNIVTKLEHHHHHH | soluble |
| MGSDKIHHHHHHMGVVETAEWLHLYYGRPEKLCEKFTKYIPLPKERLYRFLISKGMYRPVMRGEREIKELEKKEVWKELRAEYEKLKDWLKGPDVPVFILLSDSYNRTVQEEYNGRAGLSMRHVIFLFVCGRNSVEELKVLLAHEYHHICRLHQIETKETEYTLLDTMIMEGLAEQAVTERYSEKNNAPWTTYLSKEEAIYYWKNVVHERISIKRGTREHDILLNGFHSYPKMLGYALGFHIVKDCVTLEGEDTLSLLPIDAKEILNKANTFHI | not soluble |
| MPQPKKDKPDTPLRSDAQRNRERILAVATEELTHCANAPLSAIAKKAGVGQGTFYRNFPNREALVLEIYRYGMQQVAEAAPEMLATGEPDLALRQWMDRLAEFAMTKAGLADAIRLVTSAPGAPEKPRPTPLEDAAELLLRANHEAGTIRPGVTGDDFFLVLGGLWLIDPGENWQPRVTRFLDLVMDGLRAGAPGR | not soluble |
| MSENSIRLTQYSHGAGCGCKISPKVLETILHSEQAKFVDPNLLVGNETRDDAAVYDLGNGTSVISTTDFFMPIVDNPFDFGRIAATNAISDIFAMGGKPIMAIAILGWPINKLSPEIAREVTEGGRYACRQAGIALAGGHSIDAPEPIFGLAVTGIVPTERVKKNSTAQAGCKLFLTKPLGIGVLTTAEKKSLLKPEHQGLATEVMCRMNIAGASFANIEGVKAMTDVTGFGLLGHLSEMCQGAGVQARVDYDAIPKLPGVEEYIKLGAVPGGTERNFASYGHLMGEMPREVRDLLCDPQTSGGLLLAVMPEAENEVKATAAEFGIELTAIGELVPARGGRAMVEIR | not soluble |
| MSLGNKRVLITGATGFIGGYLVDEALRRQYEVWAAVRPHSDRSRLTDSRIRFVEIDYRDPSDIARLADKIAPEGESAWHLVIHNAGITKARDTSLFREINAEQTKRFLIGLQGAKHCPERFVLMSSMGSYGAPPDDCQPLSSSSVPKPTTAYGESKLLAEQYVQTFVTIPYTIIQPTGVYGPHDQDYLMAIRSVDKGFDFSTGNTPQTLTFIYAEDLASAVFIAAEHPDAAGQKYIVSDGKEYTDIEFGRMIQHLLDRKNVCHLRIPLPLVKATCYIGQKWADISGTLTPLNLDKYAIIAQRNWRCDSSPIRAIGFSPRYNLEQGLAETIRWARTTGQIREGHHHHHH | soluble |
| MGSDKIHHHHHHMPQRLYTYPPLLRGRLLQRYKRFFADIELDSGETITAHCPNTGPMTGVCQMGNLVYVSKSDNPKRKLAYTWELIEVTDNEPTWVGVNTGLPNRVVQALLEQRCLPVLGDYGEVQREVPYGENSRIDFRLTGDRPIYVEVKNTTWTAGRLALFPDTVTTRGQKHLRELTAILLEARAVMLYFINRGDCTAFAPGDSADPTYGQLLRTGIAAGLEVYPCQFQISPEGIDFLGVAPLQL | not soluble |
| MGSDKIHHHHHHMKIAVLNQKGGSGKTTVSIHLAHAFSMIGYRVLLVDTDPQGSTRDWAAARNGEAPFSVIGLDRPILHKELPKLAQGYDFVFIDGAPRVSDLTRSAIMAVDFVLVPVQPSPLDVWAVHEVVELVQEATIYKPDLTAAFLINRKIANTALGREVTEVLGEYPFPVLKAQISQRVAFAECLNIGSTVLEAAPKSAASDEVRAVVEEILEAREETNHGRS | not soluble |
| MASGAKKLRNVNEVLSAKKPVSILLMGTDTGALGRTFAGRTDSMMVVTINPKTNKTTITSIPRDTAVNIPGYTSYGVSKINAAYAYGKSKTAITTVQKMLNIPIDFYAIINMGGMEKIIDEVGGVTLKPTLSFSYGGYTFKKGVKTHMNGKKALAYSRMRDDDPLGDYGRQTRQRKVIMALLNKSNSISSLLNEDFISSLSKQTQTDLTFNDLTALATNYRKATQYIKTTHLQGTSETIESQSMEVASKSELQRVTNYIRKALGLSHKTTGTIAQLEHHHHHH | soluble |
| MTISVEKPIFEEEVSAFEKSGDNIGELKLDGGFSMPKMDTNDDEAFLAPEMNAFGRQFRDYDVESERQKGVEEFYRLQHINQTVDFVKKMRAEYGKLDKMVMSIWECCELLNEVVDESDPDLDEPQIQHLLQSAEAIRKDYPNEDWLHLTALIHDLGKVITLPQFGGLPQWAVVGDTFPVGCAFDESNVHHKYFVENPDFHNETYNTKNGIYSEGCGLNNVMMSWGHDDYMYLVAKENGSTLPSAGQFIIRYHSFYPLHTAGEYTHLMNEEDKENLKWLHVFNKYDLYSKSKVHVDVEKVKPYYMSLIKKYFPENLRW | soluble |
| MKIAAIYTQSVGPLPDGEIRFENDWSGEIESNVLITGPNGCGKSTLLRAISLLWRAFGHWLGTGTRLNIKDESYTWFYRWDASCAMILDSFSPKSEDQIGLFLGSEAFLVQLKEKYPQVYWLGETVSRTKGTTPETTVFTSSEHFFLPYKNWWSHWSSQYQRLVLKGPSVDMPNLVYLDAEARRWVRPQKDIGSLSPDDSTQAWLATYEVNDNWKGQLESSLFNMKATMPGEYPEMIATLNQFFSGKRIEAEIHPGQRQRVLLDSGNDHSLDALSSGEHQVLIMLFTVQRWLQPGGVVLIDEPDLHLHPSLISPLLASIENIVARKNGQLVMTSHATDIWQRYDNMGLRIDLTDGKDAENGQRLEHHHHHH | soluble |
| MIGLITTLYFVAKTAFIKLKVAVYKDKAKGSGNKNTIVIYSEGKRYWNVFLPICNEFEEHQKELVFYTSSEDDPVFEQHYTYVKPEYIGKGNKAFARLNMLEADICLMTTPGLDVYQLKRSKHVRHYSHILHALDDATSYRLFGLDYFDSVLLSGEYQVKGIRELESLRNLPPKNLRVVGCPYLDVLSEKIKNLPEKSSDFTVLIAPSWGASGILSKYGEQLITPLVETGWNIIIRPHPQSKTSEPDMLKRLEGKYKDVANFVWDYNSENIDSLSKADIMISDFSSVIFDYCFLFDKPFLYCNNEFDHRPYDSGDLKETPWKFSVLKEIGVELNSNSFDHIKEIISEACKSETLKENRLKAKDTAWQNRGCAGKAVYDFLTEIKTI | not soluble |
